Literature values, collected in article PMC5904255.

Molecular target: C1q (Homo sapiens) (UniProt P02745)
Sequence (P02745 23-245, chain 1 of 3): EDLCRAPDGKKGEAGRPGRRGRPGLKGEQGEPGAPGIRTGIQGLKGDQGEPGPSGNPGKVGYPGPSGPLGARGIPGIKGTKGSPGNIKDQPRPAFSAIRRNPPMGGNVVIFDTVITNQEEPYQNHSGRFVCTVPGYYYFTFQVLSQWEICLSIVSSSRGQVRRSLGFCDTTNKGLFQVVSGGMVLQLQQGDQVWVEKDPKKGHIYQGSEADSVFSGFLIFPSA
Sequence (P02746 28-253, chain 2 of 3, further chain): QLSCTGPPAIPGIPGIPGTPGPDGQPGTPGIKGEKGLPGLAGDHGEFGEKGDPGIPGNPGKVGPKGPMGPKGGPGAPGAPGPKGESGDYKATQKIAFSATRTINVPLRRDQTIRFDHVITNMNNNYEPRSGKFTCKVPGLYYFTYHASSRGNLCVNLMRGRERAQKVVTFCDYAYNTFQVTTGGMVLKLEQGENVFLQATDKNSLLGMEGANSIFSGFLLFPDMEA
Sequence (P02747 29-245, chain 3 of 3, further chain): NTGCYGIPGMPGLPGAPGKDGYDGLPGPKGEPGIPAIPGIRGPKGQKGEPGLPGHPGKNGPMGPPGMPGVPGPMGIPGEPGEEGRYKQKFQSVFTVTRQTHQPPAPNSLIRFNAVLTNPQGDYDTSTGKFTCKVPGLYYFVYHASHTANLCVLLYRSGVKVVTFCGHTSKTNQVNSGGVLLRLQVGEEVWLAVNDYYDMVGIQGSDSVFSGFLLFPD

Sequence of HMGB1 (P09429 whole entry): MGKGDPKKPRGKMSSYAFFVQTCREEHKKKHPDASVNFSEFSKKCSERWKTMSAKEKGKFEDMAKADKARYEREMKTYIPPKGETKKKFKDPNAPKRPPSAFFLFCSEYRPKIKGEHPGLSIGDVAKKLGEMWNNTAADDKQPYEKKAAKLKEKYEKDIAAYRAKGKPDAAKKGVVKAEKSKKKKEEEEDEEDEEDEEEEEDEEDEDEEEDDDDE

Kd: 200 nM
Substance: HMGB1 (from UniProt P09429)
